Measured values published in US20230407373A1 (priority 2020, published 2023).
Read-outs that look alike come from different tables or passages of the source.

Legend:
Assay type in all cases: binding
SARS-CoV-2 gRNA = settings: […]; LC-MS/MS; Probe I sample (first 199 lines of Table 2)
gRNA of HCoV-OC43 = settings: for target (spectral count, OC43 Probe I RNP capture) / background (spectral count, no-probe control): type n_48_v: 48 hours post-infection; for target (spectral count, OC43 Probe I RNP capture): infected cells, unweighted spectral count; for background (spectral count, no-probe control): no-probe control on infected cells; for target (spectral count) / background (spectral count): type g_36_m, 36 hpi, Probe I; for target (spectral count): HCoV-OC43-infected HCT-8 cells; for background (spectral count): uninfected-probe control
HCoV-OC43 gRNA and sgRNA = settings: for target (unweighted spectral count, OC43 Probe II capture) / target (spectral count) / background (spectral count): 36 hpi; for target (unweighted spectral count, OC43 Probe II capture): type n_36_v, FDR<10%; for target (unweighted spectral count, OC43 Probe II capture) / target (unweighted spectral count): tested against no-probe control; for target (unweighted spectral count): OC43 Probe II, infected cells; for target (unweighted spectral count, OC43 Probe II) / background (unweighted spectral count, no-probe control): type n_48_v, 48 hpi; for target (unweighted spectral count, OC43 Probe II): OC43 Probe II capture on infected cells; for background (unweighted spectral count, no-probe control): no-probe control on infected cells; for target (spectral count) / background (spectral count): type s_36_m, Probe II; for target (spectral count): HCoV-OC43-infected HCT-8 cells; for background (spectral count): uninfected-probe control
[1] = test system: SARS-CoV-2 gRNA and sgRNAs; settings: for target (unweighted spectral count in RNP capture): Probe II capture, LC-MS/MS LFQ; for background (unweighted spectral count in control): no-probe control pull-down, used as background for Probe II

B1: HNRNPM (protein, UniProt P52272 2-730, looked up)
Heterogeneous nuclear …: AAGVEAAAEVAATEIKMEEESGAPGVPSGNGAPGPKGEGERPAQNEKRKEKNIKRGGNRFEPYANPTKRYRAFITNIPFDVKWQSLKDLVKEKVGEVTYVELLMDAEGKSRGCAVVEFKMEESMKKAAEVLNKHSLSGRPLKVKEDPDGEHARRAMQKVMATTGGMGMGPGGPGMITIPPSILNNPNIPNEIIHALQAGRLGSTVFVANLDYKVGWKKLKEVFSMAGVVVRADILEDKDGKSRGIGTVTFEQSIEAVQAISMFNGQLLFDRPMHVKMDERALPKGDFFPPERPQQLPHGLGGIGMGLGPGGQPIDANHLNKGIGMGNIGPAGMGMEGIGFGINKMGGMEGPFGGGMENMGRFGSGMNMGRINEILSNALKRGEIIAKQGGGGGGGSVPGIERMGPGIDRLGGAGMERMGAGLGHGMDRVGSEIERMGLVMDRMGSVERMGSGIERMGPLGLDHMASSIERMGQTMERIGSGVERMGAGMGFGLERMAAPIDRVGQTIERMGSGVERMGPAIERMGLSMERMVPAGMGAGLERMGPVMDRMATGLERMGANNLERMGLERMGANSLERMGLERMGANSLERMGPAMGPALGAGIERMGLAMGGGGGASFDRAIEMERGNFGGSFAGSFGGAGGHAPGVARKACQIFVRNLPFDFTWKMLKDKFNECGHVLYADIKMENGKSKGCGVVKFESPEVAERACRMMNGMKLSGREIDVRIDRNA
- target (unweighted spectral count of the protein in the RNP capture) (SARS-CoV-2 gRNA): 71
- target (spectral count, OC43 Probe I RNP capture) (gRNA of HCoV-OC43): 65
- background (spectral count, no-probe control) (gRNA of HCoV-OC43): 7
- target (unweighted spectral count, OC43 Probe II capture) (HCoV-OC43 gRNA and sgRNA): 73
- target (unweighted spectral count) (HCoV-OC43 gRNA and sgRNA; 12 hpi (type n_12_v)): 22
- target (unweighted spectral count) (HCoV-OC43 gRNA and sgRNA; 24 hpi (type n_24_v)): 34
- target (unweighted spectral count in RNP capture) ([1]; […]): 53
- background (unweighted spectral count in control) [1]: 1

B2: EWSR1: host protein, UniProt Q01644 (protein, UniProt Q01844 1-656, looked up)
RNA-binding protein EWS: MASTDYSTYSQAAAQQGYSAYTAQPTQGYAQTTQAYGQQSYGTYGQPTDVSYTQAQTTATYGQTAYATSYGQPPTGYTTPTAPQAYSQPVQGYGTGAYDTTTATVTTTQASYAAQSAYGTQPAYPAYGQQPAATAPTRPQDGNKPTETSQPQSSTGGYNQPSLGYGQSNYSYPQVPGSYPMQPVTAPPSYPPTSYSSTQPTSYDQSSYSQQNTYGQPSSYGQQSSYGQQSSYGQQPPTSYPPQTGSYSQAPSQYSQQSSSYGQQSSFRQDHPSSMGVYGQESGGFSGPGENRSMSGPDNRGRGRGGFDRGGMSRGGRGGGRGGMGSAGERGGFNKPGGPMDEGPDLDLGPPVDPDEDSDNSAIYVQGLNDSVTLDDLADFFKQCGVVKMNKRTGQPMIHIYLDKETGKPKGDATVSYEDPPTAKAAVEWFDGKDFQGSKLKVSLARKKPPMNSMRGGLPPREGRGMPPPLRGGPGGPGGPGGPMGRMGGRGGDRGGFPPRGPRGSRGNPSGGGNVQHRAGDWQCPNPGCGNQNFAWRTECNQCKAPKPEGFLPPPFPPPGGDRGRGGPGGMRGGRGGLMDRGGPGGMFRGGRGGDRGGFRGGRGMDRGGFGGGRRGGPGGPPGPLMEQMGGRRGGRGGPGKMDKGEHRQERRDRPY
- target (unweighted spectral count of the protein in the RNP capture) (SARS-CoV-2 gRNA): 9
- target (spectral count, OC43 Probe I RNP capture) (gRNA of HCoV-OC43): 8
- background (spectral count, no-probe control) (gRNA of HCoV-OC43): 1
- target (unweighted spectral count, OC43 Probe II capture) (HCoV-OC43 gRNA and sgRNA): 9
- target (unweighted spectral count) (HCoV-OC43 gRNA and sgRNA; 24 hpi (type n_24_v)): 6
- target (unweighted spectral count, OC43 Probe II) (HCoV-OC43 gRNA and sgRNA): 10
- background (unweighted spectral count, no-probe control) (HCoV-OC43 gRNA and sgRNA): 1
- target (spectral count) (HCoV-OC43 gRNA and sgRNA): 9
- background (spectral count) (HCoV-OC43 gRNA and sgRNA): 1
- target (unweighted spectral count in RNP capture) ([1]; […]): 7
- background (unweighted spectral count in control) [1]: 1

B3: PSPC1: host protein, UniProt Q8WXF1 (protein, UniProt Q8WXF1 1-523, looked up)
Paraspeckle component 1: MMLRGNLKQVRIEKNPARLRALESAVGESEPAAAAAMALALAGEPAPPAPAPPEDHPDEEMGFTIDIKSFLKPGEKTYTQRCRLFVGNLPTDITEEDFKRLFERYGEPSEVFINRDRGFGFIRLESRTLAEIAKAELDGTILKSRPLRIRFATHGAALTVKNLSPVVSNELLEQAFSQFGPVEKAVVVVDDRGRATGKGFVEFAAKPPARKALERCGDGAFLLTTTPRPVIVEPMEQFDDEDGLPEKLMQKTQQYHKEREQPPRFAQPGTFEFEYASRWKALDEMEKQQREQVDRNIREAKEKLEAEMEAARHEHQLMLMRQDLMRRQEELRRLEELRNQELQKRKQIQLRHEEEHRRREEEMIRHREQEELRRQQEGFKPNYMENREQEMRMGDMGPRGAINMGDAFSPAPAGNQGPPPMMGMNMNNRATIPGPPMGPGPAMGPEGAANMGTPMMPDNGAVHNDRFPQGPPSQMGSPMGSRTGSETPQAPMSGVGPVSGGPGGFGRGSQGGNFEGPNKRRRY
- target (unweighted spectral count of the protein in the RNP capture) (SARS-CoV-2 gRNA): 7
- target (spectral count) (gRNA of HCoV-OC43): 12
- background (spectral count) (gRNA of HCoV-OC43): 1
- target (spectral count, OC43 Probe I RNP capture) (gRNA of HCoV-OC43): 20
- background (spectral count, no-probe control) (gRNA of HCoV-OC43): 1
- target (unweighted spectral count, OC43 Probe II capture) (HCoV-OC43 gRNA and sgRNA): 14
- target (unweighted spectral count) (HCoV-OC43 gRNA and sgRNA; 12 hpi (type n_12_v)): 4
- target (unweighted spectral count) (HCoV-OC43 gRNA and sgRNA; 24 hpi (type n_24_v)): 8
- target (unweighted spectral count, OC43 Probe II) (HCoV-OC43 gRNA and sgRNA): 14
- background (unweighted spectral count, no-probe control) (HCoV-OC43 gRNA and sgRNA): 1
- target (spectral count) (HCoV-OC43 gRNA and sgRNA): 14
- background (spectral count) (HCoV-OC43 gRNA and sgRNA): 1
- target (unweighted spectral count in RNP capture) ([1]; […]): 10
- background (unweighted spectral count in control) [1]: 1

B4: RBM14: host protein, UniProt Q96PK6 (protein, UniProt Q96PK6 1-669, looked up)
RNA-binding protein 14: MKIFVGNVDGADTTPEELAALFAPYGTVMSCAVMKQFAFVHMRENAGALRAIEALHGHELRPGRALVVEMSRPRPLNTWKIFVGNVSAACTSQELRSLFERRGRVIECDVVKDYAFVHMEKEADAKAAIAQLNGKEVKGKRINVELSTKGQKKGPGLAVQSGDKTKKPGAGDTAFPGTGGFSATFDYQQAFGNSTGGFDGQARQPTPPFFGRDRSPLRRSPPRASYVAPLTAQPATYRAQPSVSLGAAYRAQPSASLGVGYRTQPMTAQAASYRAQPSVSLGAPYRGQLASPSSQSAAASSLGPYGGAQPSASALSSYGGQAAAASSLNSYGAQGSSLASYGNQPSSYGAQAASSYGVRAAASSYNTQGAASSLGSYGAQAASYGAQSAASSLAYGAQAASYNAQPSASYNAQSAPYAAQQAASYSSQPAAYVAQPATAAAYASQPAAYAAQATTPMAGSYGAQPVVQTQLNSYGAQASMGLSGSYGAQSAAAATGSYGAAAAYGAQPSATLAAPYRTQSSASLAASYAAQQHPQAAASYRGQPGNAYDGAGQPSAAYLSMSQGAVANANSTPPPYERTRLSPPRASYDDPYKKAVAMSKRYGSDRRLAELSDYRRLSESQLSFRRSPTKSSLDYRRLPDAHSDYARYSGSYNDYLRAAQMHSGYQRRM
- target (unweighted spectral count of the protein in the RNP capture) (SARS-CoV-2 gRNA): 9
- target (spectral count) (gRNA of HCoV-OC43): 20
- background (spectral count) (gRNA of HCoV-OC43): 2
- target (spectral count, OC43 Probe I RNP capture) (gRNA of HCoV-OC43): 19
- background (spectral count, no-probe control) (gRNA of HCoV-OC43): 2
- target (unweighted spectral count, OC43 Probe II capture) (HCoV-OC43 gRNA and sgRNA): 14
- target (unweighted spectral count) (HCoV-OC43 gRNA and sgRNA; 12 hpi (type n_12_v)): 5
- target (unweighted spectral count, OC43 Probe II) (HCoV-OC43 gRNA and sgRNA): 17
- background (unweighted spectral count, no-probe control) (HCoV-OC43 gRNA and sgRNA): 2
- target (unweighted spectral count in RNP capture) ([1]; […]): 10
- background (unweighted spectral count in control) [1]: 1

B5: U2AF2 (protein, UniProt P26368 2-475, looked up)
Splicing factor U2AF 65 kDa …: SDFDEFERQLNENKQERDKENRHRKRSHSRSRSRDRKRRSRSRDRRNRDQRSASRDRRRRSKPLTRGAKEEHGGLIRSPRHEKKKKVRKYWDVPPPGFEHITPMQYKAMQAAGQIPATALLPTMTPDGLAVTPTPVPVVGSQMTRQARRLYVGNIPFGITEEAMMDFFNAQMRLGGLTQAPGNPVLAVQINQDKNFAFLEFRSVDETTQAMAFDGIIFQGQSLKIRRPHDYQPLPGMSENPSVYVPGVVSTVVPDSAHKLFIGGLPNYLNDDQVKELLTSFGPLKAFNLVKDSATGLSKGYAFCEYVDINVTDQAIAGLNGMQLGDKKLLVQRASVGAKNATLVSPPSTINQTPVTLQVPGLMSSQVQMGGHPTEVLCLMNMVLPEELLDDEEYEEIVEDVRDECSKYGLVKSIEIPRPVDGVEVPGCGKIFVEFTSVFDCQKAMQGLTGRKFANRVVVTKYCDPDSYHRRDFW
- target (unweighted spectral count of the protein in the RNP capture) (SARS-CoV-2 gRNA): 7
- target (spectral count, OC43 Probe I RNP capture) (gRNA of HCoV-OC43): 8
- background (spectral count, no-probe control) (gRNA of HCoV-OC43): 1
- target (unweighted spectral count, OC43 Probe II capture) (HCoV-OC43 gRNA and sgRNA): 6
- target (unweighted spectral count) (HCoV-OC43 gRNA and sgRNA; 12 hpi (type n_12_v)): 5
- target (unweighted spectral count, OC43 Probe II) (HCoV-OC43 gRNA and sgRNA): 12
- background (unweighted spectral count, no-probe control) (HCoV-OC43 gRNA and sgRNA): 1
- target (unweighted spectral count of the protein in the RNP capture experiment) ([1]; […], LC-MS/MS label-free quantification, probe pool not given): 6
- back-ground (unweighted spectral count of the protein in the control experiment) ([1]; protein background of the control (e.g. no-probe) experiment, […]): 1

B6: CNBP: host protein, UniProt P62633 (protein, UniProt P62633 2-177, looked up)
CCHC-type zinc finger nucleic …: SSNECFKCGRSGHWARECPTGGGRGRGMRSRGRGGFTSDRGFQFVSSSLPDICYRCGESGHLAKDCDLQEDACYNCGRGGHIAKDCKEPKREREQCCYNCGKPGHLARDCDHADEQKCYSCGEFGHIQKDCTKVKCYRCGETGHVAINCSKTSEVNCYRCGESGHLARECTIEATA
- target (unweighted spectral count of the protein in the RNP capture) (SARS-CoV-2 gRNA): 74
- target (spectral count) (gRNA of HCoV-OC43): 15
- background (spectral count) (gRNA of HCoV-OC43): 2
- target (spectral count, OC43 Probe I RNP capture) (gRNA of HCoV-OC43): 22
- background (spectral count, no-probe control) (gRNA of HCoV-OC43): 2
- target (unweighted spectral count, OC43 Probe II capture) (HCoV-OC43 gRNA and sgRNA): 14
- target (unweighted spectral count) (HCoV-OC43 gRNA and sgRNA; 12 hpi (type n_12_v)): 5
- target (unweighted spectral count) (HCoV-OC43 gRNA and sgRNA; 24 hpi (type n_24_v)): 12
- target (unweighted spectral count, OC43 Probe II) (HCoV-OC43 gRNA and sgRNA): 19
- background (unweighted spectral count, no-probe control) (HCoV-OC43 gRNA and sgRNA): 2
- target (unweighted spectral count in RNP capture) ([1]; […]): 44
- background (unweighted spectral count in control) [1]: 1
